Measurements published in FireProtDB (doi:10.1021/bi011146t).

Conditions: Alicyclobacillus acidocaldarius subsp. acidocaldarius, pH 7.5, 20 °C, CD, sodium phosphate 20 mM, reversible: no

wild type (from UniProt Q7SIG1)
denaturant m value (GdnHCl): 2.08 kcal/mol/M
denaturant midpoint (higher = more stable) (GdnHCl): 1.9 M
unfolding free energy (GdnHCl): 4.3 kcal/mol
denaturant m value (Urea): 2.63 kcal/mol/M
denaturant midpoint (higher = more stable) (Urea): 5.9 M
unfolding free energy (Urea): 15.1 kcal/mol
